Measurements taken from the supplement of paper PMC5998384.

Columns and labels:
[1] = system: HeLa Kyoto; experiment: solubility in G1/S (NP-40 vs SDS abundance) (log2 ratio); higher = more soluble; details: cell cycle stage: G1/S
[2] = system: HeLa Kyoto; experiment: solubility change mitosis vs G1/S (difference of NP-40 vs SDS log2 ratios) (log2 ratio difference); higher = more soluble in mitosis
[3] = system: HeLa Kyoto; experiment: thermal stability score vs G1/S (z-score of summed log2 fold changes over temperatures); higher = more thermally stable than in G1/S
[4] = cell cycle stage: early G1 (4.5 h after nocodazole release)
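Throughout, for solubility change mitosis vs G1/S (difference of NP-40 vs SDS log2 ratios): synchronized HeLa Kyoto cells (double thymidine block for G1/S, nocodazole release for mitosis), protein amounts in NP-40 versus SDS lysates quantified by mass spectrometry, three biological replicates.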
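Throughout, for solubility in G1/S (NP-40 vs SDS abundance): HeLa Kyoto cells arrested at G1/S by double thymidine block, proteins quantified by TMT10plex mass spectrometry in mild NP-40 versus SDS extracts, three biological replicates.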
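Throughout, for thermal stability score vs G1/S (z-score of summed log2 fold changes over temperatures): synchronized HeLa Kyoto cells, proteins quantified by TMT10plex mass spectrometry, three biological replicates, mitosis taken 0.5 h after nocodazole release, G1/S directly after double thymidine block.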

SOX13, sequence (chain, as listed by the source): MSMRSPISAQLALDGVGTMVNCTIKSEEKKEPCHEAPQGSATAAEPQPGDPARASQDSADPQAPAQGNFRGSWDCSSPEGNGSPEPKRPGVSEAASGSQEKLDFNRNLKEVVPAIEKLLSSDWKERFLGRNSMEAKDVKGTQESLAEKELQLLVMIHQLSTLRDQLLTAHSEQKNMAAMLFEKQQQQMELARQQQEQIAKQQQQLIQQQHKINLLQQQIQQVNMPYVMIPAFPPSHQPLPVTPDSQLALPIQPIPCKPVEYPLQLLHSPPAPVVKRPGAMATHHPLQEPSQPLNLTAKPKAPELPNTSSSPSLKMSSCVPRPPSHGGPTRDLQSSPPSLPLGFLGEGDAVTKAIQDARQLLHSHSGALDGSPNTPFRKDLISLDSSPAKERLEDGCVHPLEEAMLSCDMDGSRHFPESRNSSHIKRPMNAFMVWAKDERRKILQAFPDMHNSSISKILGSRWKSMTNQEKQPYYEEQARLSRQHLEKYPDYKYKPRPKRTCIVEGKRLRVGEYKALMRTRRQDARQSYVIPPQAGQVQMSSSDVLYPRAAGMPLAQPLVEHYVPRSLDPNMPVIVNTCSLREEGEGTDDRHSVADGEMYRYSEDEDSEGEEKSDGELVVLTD
WWP2, sequence (chain, as listed by the source): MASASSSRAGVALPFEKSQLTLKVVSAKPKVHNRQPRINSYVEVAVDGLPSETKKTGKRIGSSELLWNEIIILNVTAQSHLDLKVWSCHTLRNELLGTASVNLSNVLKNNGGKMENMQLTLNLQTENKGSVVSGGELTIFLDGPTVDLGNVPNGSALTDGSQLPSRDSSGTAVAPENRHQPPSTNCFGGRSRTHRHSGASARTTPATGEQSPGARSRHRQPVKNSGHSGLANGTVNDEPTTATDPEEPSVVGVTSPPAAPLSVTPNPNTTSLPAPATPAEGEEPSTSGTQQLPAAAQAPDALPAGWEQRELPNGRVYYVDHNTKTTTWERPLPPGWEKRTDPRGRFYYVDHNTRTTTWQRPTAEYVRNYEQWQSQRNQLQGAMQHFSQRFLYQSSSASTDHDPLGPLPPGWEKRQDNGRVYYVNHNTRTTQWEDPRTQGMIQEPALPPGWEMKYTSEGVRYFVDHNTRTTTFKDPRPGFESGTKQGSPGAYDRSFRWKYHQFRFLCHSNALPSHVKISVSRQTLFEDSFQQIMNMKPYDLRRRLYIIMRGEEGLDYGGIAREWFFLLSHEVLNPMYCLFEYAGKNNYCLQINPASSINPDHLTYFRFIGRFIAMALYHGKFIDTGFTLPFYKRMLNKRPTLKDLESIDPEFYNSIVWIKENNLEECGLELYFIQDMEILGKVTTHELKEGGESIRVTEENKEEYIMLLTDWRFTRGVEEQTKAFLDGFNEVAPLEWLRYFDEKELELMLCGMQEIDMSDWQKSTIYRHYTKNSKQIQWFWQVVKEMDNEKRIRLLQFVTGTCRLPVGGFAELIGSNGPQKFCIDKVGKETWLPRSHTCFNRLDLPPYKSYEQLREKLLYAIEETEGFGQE

Row | Substance | solubility in G1/S (log2) [1] | solubility change mitosis (log2) [2] | thermal stability score [3, 4] | thermal stability score ([3]; cell cycle stage: mitosis)
1 | MTKLAQWLWGLAILGSTWVALTTGALGLELPLSCQEVLWPLPAYLLVSAGCYALGTVGYRVATFHDCEDAARELQSQIQEARADLARRGLRF [DPM3] | -0.196 | -0.214 | -3.28 | -4.14
2 | MTNPWEEKVCKMAQTSLLQGKQFYCREWVFHKLQHCLQEKSNCCNSAVNAPSLVMNSGNNASGVSGKGAAWGVLLVGGPGSGKTALCTELLWPSSPASLQRGLHRQALAFHFCKAQDSDTLCVGGFIRGLVAQICRSGLLQGYEDKLRDPAVQSLLQPGECERNPAEAFKRCVLLPLLGMKPPQQSLYLLVDSVDEGCNITEGEQTSTSLSGTVAALLAGHHEFFPPWLLLLCSARKQSKAVTKMFTGFRKISLDDLRKAYIVKDVQQYILHRLDQEEALRQHLTKETAEMLNQLHIKSSGCFLYLERVLDGVVENFIMLREIRDIPGTLNGLYLWLCQRLFVRKQFAKVQPILNVILAACRPLTITELYHAVWTKNMSLTLEDFQRKLDILSKLLVDGLGNTKILFHYSFAEWLLDVKHCTQKYLCNAAEGHRMLAMSYTCQAKNLTPLEAQEFALHLINSNLQLETAELALWMIWNGTPVRDSLSTLIPKEQEVLQLLVKAGAHVNSEDDRTSCIVRQALEREDSIRTLLDNGASVNQCDSNGRTLLANAAYSGSLDVVNLLVSRGADLEIEDAHGHTPLTLAARQGHTKVVNCLIGCGANINHTDQDGWTALRSAAWGGHTEVVSALLYAGVKVDCADADSRTALRAAAWGGHEDIVLNLLQHGAEVNKADNEGRTALIAAAYMGHREIVEHLLDHGAEVNHEDVDGRTALSVAALCVPASKGHASVVSLLIDRGAEVDHCDKDGMTPLLVAAYEGHVDVVDLLLEGGADVDHTDNNGRTPLLAAASMGHASVVNTLLFWGAAVDSIDSEGRTVLSIASAQGNVEVVRTLLDRGLDENHRDDAGWTPLHMAAFEGHRLICEALIEQGARTNEIDNDGRIPFILASQEGHYDCVQILLENKSNIDQRGYDGRNALRVAALEGHRDIVELLFSHGADVNCKDADGRPTLYILALENQLTMAEYFLENGANVEASDAEGRTALHVSCWQGHMEMVQVLIAYHADVNAADNEKRSALQSAAWQGHVKVVQLLIEHGAVVDHTCNQGATALCIAAQEGHIDVVQVLLEHGADPNHADQFGRTAMRVAAKNGHSQIIKLLEKYGASSLNGCSPSPVHTMEQKPLQSLSSKVQSLTIKSNSSGSTGGGDMQPSLRGLPNGPTHAFSSPSESPDSTVDRQKSSLSNNSLKSSKNSSLRTTSSTATAQTVPIDSFHNLSFTEQIQQHSLPRSRSRQSIVSPSSTTQSLGQSHNSPSSEFEWSQVKPSLKSTKASKGGKSENSAKSGSAGKKAKQSNSSQPKVLEYEMTQFDRRGPIAKSGTAAPPKQMPAESQCKIMIPSAQQEIGRSQQQFLIHQQSGEQKKRNGIMTNPNYHLQSNQVFLGRVSVPRTMQDRGHQEVLEGYPSSETELSLKQALKLQIEGSDPSFNYKKETPL [ANKRD50] | 0.02 | -0.256 | -0.667 | -0.543
3 | MTTAQRDSLLWKLAGLLRESGDVVLSGCSTLSLLTPTLQQLNHVFELHLGPWGPGQTGFVALPSHPADSPVILQLQFLFDVLQKTLSLKLVHVAGPGPTGPIKIFPFKSLRHLELRGVPLHCLHGLRGIYSQLETLICSRSLQALEELLSACGGDFCSALPWLALLSANFSYNALTALDSSLRLLSALRFLNLSHNQVQDCQGFLMDLCELHHLDISYNRLHLVPRMGPSGAALGVLILRGNELRSLHGLEQLRNLRHLDLAYNLLEGHRELSPLWLLAELRKLYLEGNPLWFHPEHRAATAQYLSPRARDAATGFLLDGKVLSLTDFQTHTSLGLSPMGPPLPWPVGSTPETSGGPDLSDSLSSGGVVTQPLLHKVKSRVRVRRASISEPSDTDPEPRTLNPSPAGWFVQQHPELELMSSFRERFGRNWLQYRSHLEPSGNPLPATPTTSAPSAPPASSQGPDTAPRPSPPQEEARGPQESPQKMSEEVRAEPQEEEEEKEGKEEKEEGEMVEQGEEEAGEEEEEEQDQKEVEAELCRPLLVCPLEGPEGVRGRECFLRVTSAHLFEVELQAARTLERLELQSLEAAEIEPEAQAQRSPRPTGSDLLPGAPILSLRFSYICPDRQLRRYLVLEPDAHAAVQELLAVLTPVTNVAREQLGEARDLLLGRFQCLRCGHEFKPEEPRMGLDSEEGWRPLFQKTESPAVCPNCGSDHVVLLAVSRGTPNRERKQGEQSLAPSPSASPVCHPPGHGDHLDRAKNSPPQAPSTRDHGSWSLSPPPERCGLRSVDHRLRLFLDVEVFSDAQEEFQCCLKVPVALAGHTGEFMCLVVVSDRRLYLLKVTGEMREPPASWLQLTLAVPLQDLSGIELGLAGQSLRLEWAAGAGRCVLLPRDARHCRAFLEELLDVLQSLPPAWRNCVSATEEEVTPQHRLWPLLEKDSSLEARQFFYLRAFLVEGPSTCLVSLLLTPSTLFLLDEDAAGSPAEPSPPAASGEASEKVPPSGPGPAVRVREQQPLSSLSSVLLYRSAPEDLRLLFYDEVSRLESFWALRVVCQEQLTALLAWIREPWEELFSIGLRTVIQEALALDR [STK11IP] | -0.0528 | -0.0941 | -0.272 | -1.04
4 | MTTLDHVIATHQSEWVSFNEEPPFPAHSQGGTEEHLPGLSSSPDQSESSSGENHVVDGGSQDHSHSEQDDSSEKMGLISEAASPPGSPEQPPPDLASAISNWVQFEDDTPWASTSPPHQETAETALPLTMPCWTCPSFDSLGRCPLTSESSWTTHSEDTSSPSFGCSYTDLQLINAEEQTSGQASGADSTDNSSSLQEDEEVEMEAISWQASSPAMNGHPAPPVTSARFPSWVTFDDNEVSCPLPPVTSPLKPNTPPSASVIPDVPYNSMGSFKKRDRPKSTLMNFSKVQKLDISSLNRTPSVTEASPWRATNPFLNETLQDVQPSPINPFSAFFEEQERRSQNSSISSTTGKSQRDSLIVIYQDAISFDDSSKTQSHSDAVEKLKQLQIDDPDHFGSATLPDDDPVAWIELDAHPPGSARSQPRDGWPMMLRIPEKKNIMSSRHWGPIFVKLTDTGYLQLYYEQGLEKPFREFKLEICHEISEPRLQNYDENGRIHSLRIDRVTYKEKKKYQPKPAVAHTAEREQVIKLGTTNYDDFLSFIHAVQDRLMDLPVLSMDLSTVGLNYLEEEITVDVRDEFSGIVSKGDNQILQHHVLTRIHILSFLSGLAECRLGLNDILVKGNEIVLRQDIMPTTTTKWIKLHECRFHGCVDEDVFHNSRVILFNPLDACRFELMRFRTVFAEKTLPFTLRTATSVNGAEVEVQSWLRMSTGFSANRDPLTQVPCENVMIRYPVPSEWVKNFRRESVLGEKSLKAKVNRGASFGSTSVSGSEPVMRVTLGTAKYEHAFNSIVWRINRLPDKNSASGHPHCFFCHLELGSDREVPSRFANHVNVEFSMPTTSASKASVRSISVEDKTDVRKWVNYSAHYSYQVALGSIWLMLPTPFVHPTTLPLLFLLAMLTMFAW [STON2] | -0.622 | 0.444 | 0.129 | -0.103
5 | MTVEQNVLQQSAAQKHQQTFLNQLREITGINDTQILQQALKDSNGNLELAVAFLTAKNAKTPQQEETTYYQTALPGNDRYISVGSQADTNVIDLTGDDKDDLQRAIALSLAESNRAFRETGITDEEQAISRVLEASIAENKACLKRTPTEVWRDSRNPYDRKRQDKAPVGLKNVGNTCWFSAVIQSLFNLLEFRRLVLNYKPPSNAQDLPRNQKEHRNLPFMRELRYLFALLVGTKRKYVDPSRAVEILKDAFKSNDSQQQDVSEFTHKLLDWLEDAFQMKAEEETDEEKPKNPMVELFYGRFLAVGVLEGKKFENTEMFGQYPLQVNGFKDLHECLEAAMIEGEIESLHSENSGKSGQEHWFTELPPVLTFELSRFEFNQALGRPEKIHNKLEFPQVLYLDRYMHRNREITRIKREEIKRLKDYLTVLQQRLERYLSYGSGPKRFPLVDVLQYALEFASSKPVCTSPVDDIDASSPPSGSIPSQTLPSTTEQQGALSSELPSTSPSSVAAISSRSVIHKPFTQSRIPPDLPMHPAPRHITEEELSVLESCLHRWRTEIENDTRDLQESISRIHRTIELMYSDKSMIQVPYRLHAVLVHEGQANAGHYWAYIFDHRESRWMKYNDIAVTKSSWEELVRDSFGGYRNASAYCLMYINDKAQFLIQEEFNKETGQPLVGIETLPPDLRDFVEEDNQRFEKELEEWDAQLAQKALQEKLLASQKLRESETSVTTAQAAGDPEYLEQPSRSDFSKHLKEETIQIITKASHEHEDKSPETVLQSAIKLEYARLVKLAQEDTPPETDYRLHHVVVYFIQNQAPKKIIEKTLLEQFGDRNLSFDERCHNIMKVAQAKLEMIKPEEVNLEEYEEWHQDYRKFRETTMYLIIGLENFQRESYIDSLLFLICAYQNNKELLSKGLYRGHDEELISHYRRECLLKLNEQAAELFESGEDREVNNGLIIMNEFIVPFLPLLLVDEMEEKDILAVEDMRNRWCSYLGQEMEPHLQEKLTDFLPKLLDCSMEIKSFHEPPKLPSYSTHELCERFARIMLSLSRTPADGR [USP25] | 0.123 | -0.00837 | -0.404 | 0.0462
6 | MVQKYQSPVRVYKYPFELIMAAYERRFPTCPLIPMFVGSDTVNEFKSEDGAIHVIERRCKLDVDAPRLLKKIAGVDYVYFVQKNSLNSRERTLHIEAYNETFSNRVIINEHCCYTVHPENEDWTCFEQSASLDIKSFFGFESTVEKIAMKQYTSNIKKGKEIIEYYLRQLEEEGITFVPRWSPPSITTSSETSSSSSKKQAASMAVVIPEAALKEGLSGDALSSPSAPEPVVGTPDDKLDADYIKRYLGDLTPLQESCLIRLRQWLQETHKGKIPKDEHILRFLRARDFNIDKAREIMCQSLTWRKQHQVDYILETWTPPQVLQDYYAGGWHHHDKDGRPLYVLRLGQMDTKGLVRALGEEALLRYVLSINEEGLRRCEENTKVFGRPISSWTCLVDLEGLNMRHLWRPGVKALLRIIEVVEANYPETLGRLLILRAPRVFPVLWTLVSPFIDDNTRRKFLIYAGNDYQGPGGLLDYIDKEIIPDFLSGECMCEVPEGGLVPKSLYRTAEELENEDLKLWTETIYQSASVFKGAPHEILIQIVDASSVITWDFDVCKGDIVFNIYHSKRSPQPPKKDSLGAHSITSPGGNNVQLIDKVWQLGRDYSMVESPLICKEGESVQGSHVTRWPGFYILQWKFHSMPACAASSLPRVDDVLASLQVSSHKCKVMYYTEVIGSEDFRGSMTSLESSHSGFSQLSAATTSSSQSHSSSMISR [SEC14L1] | -0.0916 | -0.126 | -0.528 | 0.106
7 | MWKRSEQMKIKSGKCNMAAAMETEQLGVEIFETADCEENIESQDRPKLEPFYVERYSWSQLKKLLADTRKYHGYMMAKAPHDFMFVKRNDPDGPHSDRIYYLAMSGENRENTLFYSEIPKTINRAAVLMLSWKPLLDLFQATLDYGMYSREEELLRERKRIGTVGIASYDYHQGSGTFLFQAGSGIYHVKDGGPQGFTQQPLRPNLVETSCPNIRMDPKLCPADPDWIAFIHSNDIWISNIVTREERRLTYVHNELANMEEDARSAGVATFVLQEEFDRYSGYWWCPKAETTPSGGKILRILYEENDESEVEIIHVTSPMLETRRADSFRYPKTGTANPKVTFKMSEIMIDAEGRIIDVIDKELIQPFEILFEGVEYIARAGWTPEGKYAWSILLDRSQTRLQIVLISPELFIPVEDDVMERQRLIESVPDSVTPLIIYEETTDIWINIHDIFHVFPQSHEEEIEFIFASECKTGFRHLYKITSILKESKYKRSSGGLPAPSDFKCPIKEEIAITSGEWEVLGRHGSNIQVDEVRRLVYFEGTKDSPLEHHLYVVSYVNPGEVTRLTDRGYSHSCCISQHCDFFISKYSNQKNPHCVSLYKLSSPEDDPTCKTKEFWATILDSAGPLPDYTPPEIFSFESTTGFTLYGMLYKPHDLQPGKKYPTVLFIYGGPQVQLVNNRFKGVKYFRLNTLASLGYVVVVIDNRGSCHRGLKFEGAFKYKMGQIEIDDQVEGLQYLASRYDFIDLDRVGIHGWSYGGYLSLMALMQRSDIFRVAIAGAPVTLWIFYDTGYTERYMGHPDQNEQGYYLGSVAMQAEKFPSEPNRLLLLHGFLDENVHFAHTSILLSFLVRAGKPYDLQIYPQERHSIRVPESGEHYELHLLHYLQENLGSRIAALKVI [DPP8] | -0.288 | -0.0129 | -0.204 | 0.0056
8 | SOX13 | 0.191 | 0.0877 | 0.734 | 0.151
9 | TNS1 | -0.0779 | 0.117 | 0.323 | 1.79
10 | WWP2 | -0.136 | -0.0544 | 0.284 | -1.96
